Measurements from the supplement of paper PMC11246515.
± gives the standard deviation of the averaged measurements.

Assay: total protein half-life in vivo (active degradation + dilution); higher = more stable protein
[1] = E. coli NCM3722 delta-clpP delta-lon delta-hslV, growth: N-lim chemostat, doubling time 6 h
[2] = E. coli NCM3722 delta-clpP, growth: N-lim chemostat, doubling time 6 h
[3] = E. coli NCM3722 delta-hslV, growth: N-lim chemostat, doubling time 6 h
[4] = E. coli NCM3722 delta-lon, growth: N-lim chemostat, doubling time 6 h
[5] = E. coli NCM3722 delta-smpB, growth: N-lim chemostat, doubling time 6 h
[6] = wild type E. coli NCM3722, growth: C-lim chemostat, doubling time 3 h
[7] = wild type E. coli NCM3722, growth: C-lim chemostat, doubling time 12 h
[8] = wild type E. coli NCM3722, growth: N-lim chemostat, doubling time 6 h
[9] = wild type E. coli NCM3722, growth: N-lim chemostat, doubling time 12 h
[10] = wild type E. coli NCM3722, growth: P-lim chemostat, doubling time 6 h
[11] = wild type E. coli NCM3722, growth: P-lim chemostat, doubling time 12 h
[12] = wild type E. coli NCM3722, growth: C-lim chemostat, doubling time 6 h

Row | Sequence | total protein half-life in vivo [1] | total protein half-life in vivo [2] | total protein half-life in vivo [3] | total protein half-life in vivo [4] | total protein half-life in vivo [5] | total protein half-life in vivo [6] | total protein half-life in vivo [7] | total protein half-life in vivo [8] | total protein half-life in vivo [9] | total protein half-life in vivo [10] | total protein half-life in vivo [11] | total protein half-life in vivo [12]
1 | MENAKMNSLIAQYPLVKDLVALKETTWFNPGTTSLAEGLPYVGLTEQDVQDAHARLSRFAPYLAKAFPETAATGGIIESELVAIPAMQKRLEKEYQQPISGQLLLKKDSHLPISGSIKARGGIYEVLAHAEKLALEAGLLTLDDDYSKLLSPEFKQFFSQYSIAVGSTGNLGLSIGIMSARIGFKVTVHMSADARAWKKAKLRSHGVTVVEYEQDYGVAVEEGRKAAQSDPNCFFIDDENSRTLFLGYSVAGQRLKAQFAQQGRIVDADNPLFVYLPCGVGGGPGGVAFGLKLAFGDHVHCFFAEPTHSPCMLLGVHTGLHDQISVQDIGIDNLTAADGLAVGRASGFVGRAMERLLDGFYTLSDQTMYDMLGWLAQEEGIRLEPSALAGMAGPQRVCASVSYQQMHGFSAEQLRNTTHLVWATGGGMVPEEEMNQYLAKGR | 5.22 ± 0.27 h | 5.27 ± 1.2 h | 4.89 ± 0.1 h | 5.43 ± 0.24 h | 4.517 ± 0.042 h | 3.01 ± 0.033 h | 10 ± 1.9 h | 4.91 ± 0.21 h | 7.88 ± 0.44 h | 5.98 ± 0.35 h | 11.2 ± 2.2 h | 
2 | MENKYSRLQISIHWLVFLLVIAAYCAMEFRGFFPRSDRPLINMIHVSCGISILVLMVVRLLLRLKYPTPPIIPKPKPMMTGLAHLGHLVIYLLFIALPVIGLVMMYNRGNPWFAFGLTMPYASEANFERVDSLKSWHETLANLGYFVIGLHAAAALAHHYFWKDNTLLRMMPRKRS [P0ABE5] | 7.28 h | 5.78 h | 6.32 h |  | 5.9 h | 2.81 ± 0.06 h | 14.8 h |  | 10.6 h |  | 11.9 h | 5.31 h
3 | MENLARFLSTTLKQLRQQRGWSLSRLAEATGVSKAMLGQIERNESSPTVATLWKIATGLNVPFSTFISPPQSATPSVYDPQQQAMVITSLFPYDPQLCFEHFSIQMASGAISESTPHEKGVIEHVVVIDGQLDLCVDGEWQTLNCGEGVRFAADVTHIYRNGGEQTVHFHSLIHYPRS | 5.69 ± 0.83 h | 4.59 ± 0.28 h | 4.71 ± 0.22 h | 5.58 ± 0.23 h | 5.33 ± 1.1 h | 3.4 ± 0.15 h | 10.1 ± 0.49 h | 4.52 ± 0.93 h | 7.78 ± 0.9 h | 6.27 ± 1.1 h | 9.9 ± 0.44 h | 5.27 ± 0.69 h
4 | MENQPKLNSSKEVIAFLAERFPHCFSAEGEARPLKIGIFQDLVDRVAGEMNLSKTQLRSALRLYTSSWRYLYGVKPGATRVDLDGNPCGELDEQHVEHARKQLEEAKARVQAQRAEQQAKKREAAATAGEKEDAPRRERKPRPTTPRRKEGAERKPRAQKPVEKAPKTVKAPREEQHTPVSDISALTVGQALKVKAGQNAMDATVLEITKDGVRVQLNSGMSLIVRAEHLVF | 6.28 ± 0.52 h | 4.08 ± 0.88 h | 3.47 ± 0.071 h |  | 3.13 ± 0.045 h | 2.73 ± 0.21 h | 6.83 ± 0.53 h | 3.07 ± 0.052 h | 4.76 ± 0.052 h | 2.974 ± 0.024 h | 4.71 ± 0.23 h | 4.51 ± 0.22 h
5 | MENYLIDNLDRGILEALMGNARTAYAELAKQFGVSPGTIHVRVEKMKQAGIITGARIDVSPKQLGYDVGCFIGIILKSAKDYPSALAKLESLDEVTEAYYTTGHYSIFIKVMCRSIDALQHVLINKIQTIDEIQSTETLIVLQNPIMRTIKP [P0ACI6] |  | 5.95 h | 6.24 ± 1.1 h | 5.77 ± 0.21 h | 5.72 ± 0.49 h | 3.51 ± 0.15 h | 11.4 h | 5.85 ± 0.57 h | 11.6 ± 0.12 h | 6.94 ± 0.64 h | 13.2 ± 0.17 h | 6.232 ± 0.029 h
6 | MEQRRLASTEWVDIVNEENEVIAQASREQMRAQCLRHRATYIVVHDGMGKILVQRRTETKDFLPGMLDATAGGVVQADEQLLESARREAEEELGIAGVPFAEHGQFYFEDKNCRVWGALFSCVSHGPFALQEDEVSEVCWLTPEEITARCDEFTPDSLKALALWMKRNAKNEAVETETAE | 5.19 ± 0.16 h | 4.78 ± 0.093 h | 2.3 ± 0.074 h | 2.72 ± 0.38 h | 2.49 ± 0.11 h | 1.93 ± 0.17 h | 7.26 ± 0.99 h | 2.85 h | 3.09 ± 0.045 h | 3.4 ± 0.06 h | 7.2 ± 0.65 h | 4.53 ± 1.2 h
7 | MERCGWVSQDPLYIAYHDNEWGVPETDSKKLFEMICLEGQQAGLSWITVLKKRENYRACFHQFDPVKVAAMQEEDVERLVQDAGIIRHRGKIQAIIGNARAYLQMEQNGEPFVDFVWSFVNHQPQVTQATTLSEIPTSTSASDALSKALKKRGFKFVGTTICYSFMQACGLVNDHVVGCCCYPGNKP | 5.26 ± 0.55 h | 2.52 ± 0.12 h | 2.48 ± 0.17 h | 4.36 ± 0.28 h | 1.72 ± 0.98 h |  | 3.77 ± 2 h | 2.53 ± 0.58 h | 3.37 h |  |  | 1.68 h
